In publication PMC9556795, “Micro-electron diffraction structure of the aggregation-driving N terminus of Drosophila neuronal protein Orb2A reveals amyloid-like β-sheets” (The Journal of Biological Chemistry, 2022):

Target: the molecule itself
Assay: crystal structure; micro-electron diffraction (micro-ED) of M9I microcrystals grown in batch: 6 mg/ml peptide in 1% DMSO mixed 1:1 with 0.1 M sodium phosphate pH 4.6, 1.5 M NaCl, room temperature; 1.05 Å, direct methods

B1: M9I, the first 9 N-terminal residues of Drosophila Orb2A (peptide)
peptide: MYNKFVNFI
notes: Dissolved in 100% DMSO, then diluted in water or buffer; Terminal protecting groups are not mentioned; also called M9I-WT; wildtype M9I; source: synthetic peptide, bought: Genscript (>98% purity)
binding result: binds
